Experiments:
[1] = target: T1, She3p (S343E S361E) (Saccharomyces cerevisiae, UniProt P38272 1-425, S343E;S361E); test: EMSA; +++; EMSA: 20 mM HEPES pH 7.8, 200 mM NaCl, 2 mM MgCl2, 2 mM DTT, 4% glycerol, 30 or 100 ug/ml yeast tRNA, 5 nM RNA, 20 C; filter binding: 20 mM HEPES pH 7.4-7.5 (7.9 with She3p), 150 mM NaCl, 2 mM MgCl2, 2 mM DTT, 30 ug/ml yeast tRNA, 0.5 nM RNA; pull-down: HNMD buffer, 4 C; conditions: protein: recombinant; tags: C-terminal His6; label: 32P; stem-loop
T1 sequence: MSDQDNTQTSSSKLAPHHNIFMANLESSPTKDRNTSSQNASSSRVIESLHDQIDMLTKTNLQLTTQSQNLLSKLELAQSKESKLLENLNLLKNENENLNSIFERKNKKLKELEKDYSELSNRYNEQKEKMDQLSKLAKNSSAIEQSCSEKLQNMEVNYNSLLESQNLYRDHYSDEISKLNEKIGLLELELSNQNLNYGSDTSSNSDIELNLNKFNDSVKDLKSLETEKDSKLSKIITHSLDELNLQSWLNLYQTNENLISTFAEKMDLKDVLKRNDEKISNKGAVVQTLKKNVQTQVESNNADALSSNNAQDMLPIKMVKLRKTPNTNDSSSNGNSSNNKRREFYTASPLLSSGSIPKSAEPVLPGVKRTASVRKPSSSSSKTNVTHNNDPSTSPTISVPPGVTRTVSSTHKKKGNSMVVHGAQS

[2] = target: T2, She3p (334-425) (Saccharomyces cerevisiae, UniProt P38272 334-425); test: as above; conditions: protein: recombinant; tags: MBP and His6 (EMSA); His6 (SEC, cross-linking); label: 32P; stem-loop
T2 sequence: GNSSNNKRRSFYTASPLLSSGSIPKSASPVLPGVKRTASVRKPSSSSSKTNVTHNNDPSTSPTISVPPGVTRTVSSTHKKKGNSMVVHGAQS

[3] = target: T3, She3p (L364A V367A) (Saccharomyces cerevisiae, UniProt P38272 1-425, L364A;V367A); test: as above; conditions: protein: recombinant; tags: C-terminal His6; label: 32P; stem-loop
T3 sequence: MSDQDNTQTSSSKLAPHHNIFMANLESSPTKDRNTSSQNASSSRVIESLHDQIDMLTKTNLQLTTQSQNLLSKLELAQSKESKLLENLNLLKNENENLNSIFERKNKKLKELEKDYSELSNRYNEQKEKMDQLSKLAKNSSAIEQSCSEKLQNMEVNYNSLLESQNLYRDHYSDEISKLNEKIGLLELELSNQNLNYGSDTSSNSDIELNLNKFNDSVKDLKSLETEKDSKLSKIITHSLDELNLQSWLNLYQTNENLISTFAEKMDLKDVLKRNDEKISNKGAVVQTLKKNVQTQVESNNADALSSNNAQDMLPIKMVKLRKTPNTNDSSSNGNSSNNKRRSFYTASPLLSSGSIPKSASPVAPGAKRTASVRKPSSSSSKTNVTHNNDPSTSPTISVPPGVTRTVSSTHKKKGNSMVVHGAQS

[4] = target: T4, She3p (Saccharomyces cerevisiae, UniProt P38272 1-425); test: EMSA; minimal She3p concentration for detection; EMSA: 20 mM HEPES pH 7.8, 200 mM NaCl, 2 mM MgCl2, 2 mM DTT, 4% glycerol, 30 or 100 ug/ml yeast tRNA, 5 nM RNA, 20 C; filter binding: 20 mM HEPES pH 7.4-7.5 (7.9 with She3p), 150 mM NaCl, 2 mM MgCl2, 2 mM DTT, 30 ug/ml yeast tRNA, 0.5 nM RNA; pull-down: HNMD buffer, 4 C; conditions: protein: recombinant; tags: C-terminal His6; label: 32P; stem-loop
T4 sequence: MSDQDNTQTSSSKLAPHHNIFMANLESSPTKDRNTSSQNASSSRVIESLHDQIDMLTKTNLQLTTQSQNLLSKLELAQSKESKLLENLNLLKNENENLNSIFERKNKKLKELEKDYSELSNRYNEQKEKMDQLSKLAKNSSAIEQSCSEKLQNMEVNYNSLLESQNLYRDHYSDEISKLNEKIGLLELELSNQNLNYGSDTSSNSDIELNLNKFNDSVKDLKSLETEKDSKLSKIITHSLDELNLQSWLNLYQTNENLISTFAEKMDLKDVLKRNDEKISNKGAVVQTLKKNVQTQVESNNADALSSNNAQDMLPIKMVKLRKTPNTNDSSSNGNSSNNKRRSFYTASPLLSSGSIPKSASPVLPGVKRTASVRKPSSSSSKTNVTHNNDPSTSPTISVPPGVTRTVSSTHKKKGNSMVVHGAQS

Measured: binding result

B1: ASH1 E3-118 (structured_RNA)
RNA: GAGACAGUAGAGAAUUGAUACAUGGAUAACUGAAUCUCUUUCAACUAAUAAGAGACAUUAUCACGAAACAAUUGUACAUUUCUCUCCUUGUCUGUGCUAAAUAAACUACAAAUAAAAA
binds: [1] | [2] | [3] | [4]
